This assay deals with T1, endogenous PKD1 from 293T cells (human, UniProt Q15139 1-912).
T1 construct: also called PKD1/PKCµ
T1 sequence (looked up): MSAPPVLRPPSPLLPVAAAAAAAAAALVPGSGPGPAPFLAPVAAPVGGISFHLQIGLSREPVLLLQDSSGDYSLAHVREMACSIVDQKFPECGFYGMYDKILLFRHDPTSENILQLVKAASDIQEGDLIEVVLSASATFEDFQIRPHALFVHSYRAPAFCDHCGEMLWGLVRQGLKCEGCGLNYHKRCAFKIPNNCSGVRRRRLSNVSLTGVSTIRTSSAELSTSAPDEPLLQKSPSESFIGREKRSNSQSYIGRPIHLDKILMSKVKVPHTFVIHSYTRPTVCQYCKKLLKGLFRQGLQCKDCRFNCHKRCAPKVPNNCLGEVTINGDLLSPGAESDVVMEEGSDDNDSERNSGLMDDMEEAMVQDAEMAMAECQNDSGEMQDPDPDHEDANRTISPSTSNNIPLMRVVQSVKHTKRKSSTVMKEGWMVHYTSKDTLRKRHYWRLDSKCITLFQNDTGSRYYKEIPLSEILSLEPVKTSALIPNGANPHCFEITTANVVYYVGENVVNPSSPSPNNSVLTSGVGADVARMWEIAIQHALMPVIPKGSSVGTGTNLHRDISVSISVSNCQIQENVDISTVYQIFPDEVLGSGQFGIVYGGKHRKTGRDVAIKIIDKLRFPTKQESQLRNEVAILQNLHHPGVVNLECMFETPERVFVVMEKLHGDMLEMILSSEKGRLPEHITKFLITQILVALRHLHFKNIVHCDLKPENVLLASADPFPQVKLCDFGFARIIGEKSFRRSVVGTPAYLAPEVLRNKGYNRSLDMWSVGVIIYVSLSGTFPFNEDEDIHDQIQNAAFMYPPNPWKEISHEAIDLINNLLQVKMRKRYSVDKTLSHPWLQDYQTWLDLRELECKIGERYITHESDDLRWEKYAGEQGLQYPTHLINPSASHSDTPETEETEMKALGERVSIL
Nature of the assay: co-immunoprecipitation of endogenous proteins from 293T cell lysates, untreated or treated with IFN-α.

B1: endogenous IFNAR1 from 293T cells (receptor, human, UniProt P17181 28-557, looked up)
chain: KNLKSPQKVEVDIIDDNFILRWNRSDESVGNVTFSFDYQKTGMDNWIKLSGCQNITSTKCNFSSLKLNVYEEIKLRIRAEKENTSSWYEVDSFTPFRKAQIGPPEVHLEAEDKAIVIHISPGTKDSVMWALDGLSFTYSLVIWKNSSGVEERIENIYSRHKIYKLSPETTYCLKVKAALLTSWKIGVYSPVHCIKTTVENELPPPENIEVSVQNQNYVLKWDYTYANMTFQVQWLHAFLKRNPGNHLYKWKQIPDCENVKTTQCVFPQNVFQKGIYLLRVQASDGNNTSFWSEEIKFDTEIQAFLLPPVFNIRSLSDSFHIYIGAPKQSGNTPVIQDYPLIYEIIFWENTSNAERKIIEKKTDVTVPNLKPLTVYCVKARAHTMDEKLNKSSVFSDAVCEKTKPGNTSKIWLIVGICIALFALPFVIYAAKVFLRCINYVFFPSLKPSSSIDEYFSEQPLKNLLLSTSEEQIEKCFIIENISTIATVEETNQTDEDHKKYSSQTSQDSGNYSNEDESESKTSEELQQDFV
notes: also called the receptor
On to B1, for which the binding result is given as “no binding”.

The values above are taken from patent US20120014911A1 (published 2012).
